The values below are quoted from earlier work in patent US20120245089A1, “USE OF THE SPARC MICROENVIRONMENT SIGNATURE IN THE TREATMENT OF CANCER” (ABRAXIS BIOSCIENCE, LLC, priority 2009, published 2012).

Data set [1] has as its system ovarian cancer cells.
Data set [2] deals with neuroblastoma tumor. Particulars: purified SPARC; in vivo xenograft model.
Data set [3] has as its system HOSE (human ovarian surface epithelial) and ovarian cancer cells. Particulars: exogenous SPARC; concentration-dependent.

B1: SPARC: matrix-associated protein; exogenous or purified SPARC in cited studies (protein, UniProt P09486 18-303, looked up)
SPARC: APQQEALPDETEVVEETVAEVTEVSVGANPVQVEVGEFDDGAEETEEEVVAENPCQNHHCKHGKVCELDENNTPMCVCQDPTSCPAPIGEFEKVCSNDNKTFDSSCHFFATKCTLEGTKKGHKLHLDYIGPCKYIPPCLDSELTEFPLRMRDWLKNVLVTLYERDEDNNLLTEKQKLRVKKIHENEKRLEAGDHPVELLARDFEKNYNMYIFPVHWQFGQLDQHPIDGYLSHTELAPLRAPLIPMEHCTTRFFETCDLDNDKYIALDEWAGCFGIKQKDIDKDLVI
With B1, the “Apoptosis in ovarian cancer cells” value in data set [1] was “induces apoptosis”. In data set [2], the “Angiogenesis and neuroblastoma tumor growth” value was “inhibit angio-gnesis and impair neuroblastoma tumor growth”. In addition, the “Proliferation of HOSE and ovarian cancer cells” value in data set [3] is recorded as “reduce the proliferation”.
